In paper PMC6030200:

What was measured:
[1] = molecular target: recombinant human integrin α6β1 (human) (UniProt P23229); assay: SPR; Biacore T200; integrin α6β4 or α6β1 immobilised by EDC/NHS coupling on CM5 chips (about 16000 RU); seven 2-fold dilutions of PB injected 120 s at 30 µl/minute, 120 s dissociation; 10 mM HEPES, 150 mM NaCl, 1 mM CaCl2, 1 mM MgCl2, 0.05% P20, pH 7.4; 25 °C
[2] = molecular target: recombinant human integrin α6β4 (human) (UniProt P23229); assay: as above
[3] = molecular target: HAdV-41 penton base protein, recombinant, soluble (human adenovirus type 41 (HAdV-41)); assay: gas-phase electrophoretic mobility macromolecular analysis (GEMMA)
[4] = molecular target: HAdV-41 penton base protein, recombinant, soluble (human adenovirus type 41 (HAdV-41)); assay: negative-stain electron microscopy

Sequence of recombinant human integrin α6β4 (human) (P23229 24-1130, chain 1 of 2): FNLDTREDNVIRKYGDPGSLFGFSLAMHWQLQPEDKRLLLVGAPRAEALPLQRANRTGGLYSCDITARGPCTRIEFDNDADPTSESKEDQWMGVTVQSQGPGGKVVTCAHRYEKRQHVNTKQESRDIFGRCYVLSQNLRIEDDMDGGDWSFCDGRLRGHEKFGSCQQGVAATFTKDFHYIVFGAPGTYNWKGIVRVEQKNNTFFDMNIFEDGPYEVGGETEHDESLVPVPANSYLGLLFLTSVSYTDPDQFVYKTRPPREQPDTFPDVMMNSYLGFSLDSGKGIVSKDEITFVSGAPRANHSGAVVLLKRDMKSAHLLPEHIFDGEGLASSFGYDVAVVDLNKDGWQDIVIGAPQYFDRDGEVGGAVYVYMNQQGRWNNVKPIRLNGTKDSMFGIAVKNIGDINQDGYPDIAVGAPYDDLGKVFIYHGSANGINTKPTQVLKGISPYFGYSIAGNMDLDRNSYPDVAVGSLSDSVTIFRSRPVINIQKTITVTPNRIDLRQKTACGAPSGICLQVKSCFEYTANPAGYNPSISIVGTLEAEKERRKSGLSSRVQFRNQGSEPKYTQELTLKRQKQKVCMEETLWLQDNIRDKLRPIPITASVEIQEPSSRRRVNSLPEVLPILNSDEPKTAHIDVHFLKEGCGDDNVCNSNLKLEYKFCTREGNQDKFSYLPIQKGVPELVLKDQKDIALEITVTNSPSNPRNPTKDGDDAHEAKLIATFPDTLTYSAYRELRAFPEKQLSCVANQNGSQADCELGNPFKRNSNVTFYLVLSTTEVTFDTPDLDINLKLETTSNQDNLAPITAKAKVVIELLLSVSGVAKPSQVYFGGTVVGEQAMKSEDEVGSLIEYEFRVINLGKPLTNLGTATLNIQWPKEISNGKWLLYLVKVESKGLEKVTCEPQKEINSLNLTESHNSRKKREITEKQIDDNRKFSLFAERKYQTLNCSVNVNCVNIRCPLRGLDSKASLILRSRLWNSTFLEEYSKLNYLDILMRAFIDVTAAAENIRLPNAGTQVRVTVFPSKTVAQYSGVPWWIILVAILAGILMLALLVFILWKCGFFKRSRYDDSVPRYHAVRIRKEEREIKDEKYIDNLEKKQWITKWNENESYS
Sequence of recombinant human integrin α6β4 (human) (P16144 28-710, chain 2 of 2, further chain): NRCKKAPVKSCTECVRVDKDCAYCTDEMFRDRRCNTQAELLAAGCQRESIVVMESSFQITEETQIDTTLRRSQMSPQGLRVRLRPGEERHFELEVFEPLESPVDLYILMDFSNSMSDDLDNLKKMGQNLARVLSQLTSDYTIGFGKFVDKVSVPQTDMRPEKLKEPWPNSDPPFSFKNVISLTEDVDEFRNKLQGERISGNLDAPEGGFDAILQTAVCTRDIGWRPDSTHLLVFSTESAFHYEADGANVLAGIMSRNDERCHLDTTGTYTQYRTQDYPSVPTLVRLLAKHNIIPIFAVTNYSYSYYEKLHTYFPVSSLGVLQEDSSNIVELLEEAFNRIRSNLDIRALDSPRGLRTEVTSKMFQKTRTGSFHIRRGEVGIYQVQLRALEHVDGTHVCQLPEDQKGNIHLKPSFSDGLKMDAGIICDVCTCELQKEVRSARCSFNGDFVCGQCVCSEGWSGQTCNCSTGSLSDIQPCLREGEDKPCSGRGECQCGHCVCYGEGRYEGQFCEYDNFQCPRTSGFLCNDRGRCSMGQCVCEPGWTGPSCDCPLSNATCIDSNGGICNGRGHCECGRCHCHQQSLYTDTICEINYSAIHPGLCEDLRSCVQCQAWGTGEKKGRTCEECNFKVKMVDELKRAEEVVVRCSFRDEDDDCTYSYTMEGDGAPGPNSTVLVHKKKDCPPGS

| Substance | fold lower affinity than 40PB and 41PB [1] | fold lower affinity than 40PB and 41PB [2] | fold lower affinity than to α6β4 [1] | koff [1] | kon [1] | stoichiometry N [3] | stoichiometry N [4] |
| --- | --- | --- | --- | --- | --- | --- | --- |
| HAdV-5 penton base protein, recombinant, soluble (from UniProt P12538 1-571) (natural protein) | 3 fold | 3 fold | – | – | – | – | – |
| HAdV-40 penton base protein, recombinant, soluble (natural protein) | – | – | 10 fold | 0.1 s⁻¹ | – | – | – |
| HAdV-41 penton base protein, recombinant, soluble (natural protein) | – | – | 10 fold | – | 10000 M⁻¹ s⁻¹ | 5 | 5 |
